Laboratory results taken from article PMC5615192 (mBio, 2017).

Assays:
[1] = molecular target: HPV33 KAT L1 VLP (triple mutant K161R, A168S, T308N) (human papillomavirus type 33) (UniProt P06416)
[2] = molecular target: T1, HPV58 L1 VLP R161A (human papillomavirus type 58) (UniProt P26535); assay: ELISA; indirect ELISA; wells coated with wild-type or mutant VLPs or pentamers (300 ng/well, overnight at 4°C); 2-fold serial dilutions of the antibody, 1 h at 37°C; detected with HRP goat anti-mouse IgG
T1 sequence: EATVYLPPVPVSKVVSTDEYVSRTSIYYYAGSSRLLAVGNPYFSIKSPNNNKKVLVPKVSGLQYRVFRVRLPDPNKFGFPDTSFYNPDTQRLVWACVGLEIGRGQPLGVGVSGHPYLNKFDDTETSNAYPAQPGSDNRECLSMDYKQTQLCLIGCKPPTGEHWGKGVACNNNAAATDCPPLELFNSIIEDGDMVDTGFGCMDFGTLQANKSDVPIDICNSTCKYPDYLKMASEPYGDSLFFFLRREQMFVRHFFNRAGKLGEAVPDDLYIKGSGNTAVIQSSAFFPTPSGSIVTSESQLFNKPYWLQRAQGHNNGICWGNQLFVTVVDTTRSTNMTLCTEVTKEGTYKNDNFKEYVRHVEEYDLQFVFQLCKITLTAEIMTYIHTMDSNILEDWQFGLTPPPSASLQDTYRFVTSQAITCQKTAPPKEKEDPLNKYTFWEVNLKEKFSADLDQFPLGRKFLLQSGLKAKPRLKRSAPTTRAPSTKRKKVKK

[3] = molecular target: T2, HPV58 L1 VLP D154A (human papillomavirus type 58) (UniProt P26535); assay: as above
T2 sequence: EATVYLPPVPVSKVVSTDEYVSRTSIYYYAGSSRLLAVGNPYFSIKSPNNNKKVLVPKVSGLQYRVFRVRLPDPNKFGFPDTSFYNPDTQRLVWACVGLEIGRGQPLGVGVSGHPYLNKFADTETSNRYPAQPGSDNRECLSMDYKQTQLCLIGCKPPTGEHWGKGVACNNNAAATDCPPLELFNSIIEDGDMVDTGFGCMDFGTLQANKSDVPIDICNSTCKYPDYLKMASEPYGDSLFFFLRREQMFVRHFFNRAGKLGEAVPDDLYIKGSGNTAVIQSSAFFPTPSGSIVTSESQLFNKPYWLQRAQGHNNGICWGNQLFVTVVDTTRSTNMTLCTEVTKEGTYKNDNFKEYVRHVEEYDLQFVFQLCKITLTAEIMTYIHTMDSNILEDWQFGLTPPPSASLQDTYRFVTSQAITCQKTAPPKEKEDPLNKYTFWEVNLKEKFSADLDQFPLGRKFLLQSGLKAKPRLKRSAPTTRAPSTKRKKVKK

[4] = molecular target: T3, HPV58 L1 VLP N308A (human papillomavirus type 58) (UniProt P26535); assay: as above
T3 sequence: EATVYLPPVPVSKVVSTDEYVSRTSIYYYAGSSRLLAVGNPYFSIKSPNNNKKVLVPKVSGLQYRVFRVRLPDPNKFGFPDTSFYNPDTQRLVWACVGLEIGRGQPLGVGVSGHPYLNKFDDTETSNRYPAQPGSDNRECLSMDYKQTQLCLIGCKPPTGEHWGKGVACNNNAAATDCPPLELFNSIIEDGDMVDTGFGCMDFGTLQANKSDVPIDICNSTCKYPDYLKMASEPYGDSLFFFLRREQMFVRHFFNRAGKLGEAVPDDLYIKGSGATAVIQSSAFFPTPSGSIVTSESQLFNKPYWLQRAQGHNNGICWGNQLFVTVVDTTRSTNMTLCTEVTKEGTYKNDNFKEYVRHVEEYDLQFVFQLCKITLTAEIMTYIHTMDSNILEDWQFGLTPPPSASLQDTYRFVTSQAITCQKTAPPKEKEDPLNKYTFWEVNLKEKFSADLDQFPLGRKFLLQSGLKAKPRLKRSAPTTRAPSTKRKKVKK

HPV58 L1 pentamer [5] = molecular target: T4, HPV58 L1 pentamer (Human papillomavirus type 58 (GenBank …, UniProt P26535)); assay: SPR; Biacore 3000; MAb (10 ug/ml) […]; HBS (10 mM HEPES pH 7.4, 150 mM NaCl); […]; conditions: both partners purified
T4 construct: also called HPV58p; HPV58 pentamer; source: cloned into pTO-T7

HPV58 L1 VLP = molecular target: T5, HPV58 L1 VLP (human papillomavirus type 58, UniProt P26535 34-524); assay: ELISA
T5 chain: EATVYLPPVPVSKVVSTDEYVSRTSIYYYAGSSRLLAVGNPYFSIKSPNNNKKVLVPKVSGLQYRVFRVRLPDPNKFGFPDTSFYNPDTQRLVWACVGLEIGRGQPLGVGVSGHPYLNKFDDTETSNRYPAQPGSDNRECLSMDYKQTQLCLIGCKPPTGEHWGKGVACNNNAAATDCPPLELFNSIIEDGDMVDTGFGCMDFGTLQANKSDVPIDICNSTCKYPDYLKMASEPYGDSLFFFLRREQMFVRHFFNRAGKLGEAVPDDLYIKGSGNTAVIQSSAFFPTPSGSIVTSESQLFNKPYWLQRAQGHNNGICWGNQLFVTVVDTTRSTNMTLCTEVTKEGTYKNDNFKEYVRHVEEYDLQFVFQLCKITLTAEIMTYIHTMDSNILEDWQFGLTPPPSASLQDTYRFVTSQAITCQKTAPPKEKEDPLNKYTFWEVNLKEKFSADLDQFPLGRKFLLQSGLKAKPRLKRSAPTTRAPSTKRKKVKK

HPV58 L1 pentamer [6] = molecular target: T6, HPV58 L1 pentamer (human papillomavirus type 58, UniProt P26535 34-524); assay: ELISA
T6 chain: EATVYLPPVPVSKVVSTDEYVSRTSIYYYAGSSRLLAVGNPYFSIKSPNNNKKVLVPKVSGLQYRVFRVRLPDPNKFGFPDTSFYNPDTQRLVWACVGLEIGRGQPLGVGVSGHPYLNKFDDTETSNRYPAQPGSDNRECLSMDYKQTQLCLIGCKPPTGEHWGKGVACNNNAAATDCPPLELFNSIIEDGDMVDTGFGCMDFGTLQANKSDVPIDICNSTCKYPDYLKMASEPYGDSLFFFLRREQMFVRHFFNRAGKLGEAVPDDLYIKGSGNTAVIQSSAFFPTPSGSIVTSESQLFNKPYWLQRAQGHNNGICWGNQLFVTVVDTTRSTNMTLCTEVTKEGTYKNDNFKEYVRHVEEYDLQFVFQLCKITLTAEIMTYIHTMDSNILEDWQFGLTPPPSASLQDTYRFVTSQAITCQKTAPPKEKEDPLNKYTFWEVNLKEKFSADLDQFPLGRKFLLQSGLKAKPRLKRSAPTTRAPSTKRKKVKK

[7] = molecular target: HPV18 TQG L1 VLP (triple mutant T270Q, Q273E, G281D) (human papillomavirus type 18)
[8] = molecular target: HPV59 L1 pentamer M267A (human papillomavirus type 59); assay: ELISA; indirect ELISA; wells coated with wild-type or mutant VLPs or pentamers (300 ng/well, overnight at 4°C); 2-fold serial dilutions of the antibody, 1 h at 37°C; detected with HRP goat anti-mouse IgG
[9] = molecular target: HPV59 L1 pentamer Q270A (human papillomavirus type 59); assay: as above
HPV59 L1 VLP = molecular target: T7, HPV59 L1 VLP (human papillomavirus type 59); assay: ELISA
T7 chain: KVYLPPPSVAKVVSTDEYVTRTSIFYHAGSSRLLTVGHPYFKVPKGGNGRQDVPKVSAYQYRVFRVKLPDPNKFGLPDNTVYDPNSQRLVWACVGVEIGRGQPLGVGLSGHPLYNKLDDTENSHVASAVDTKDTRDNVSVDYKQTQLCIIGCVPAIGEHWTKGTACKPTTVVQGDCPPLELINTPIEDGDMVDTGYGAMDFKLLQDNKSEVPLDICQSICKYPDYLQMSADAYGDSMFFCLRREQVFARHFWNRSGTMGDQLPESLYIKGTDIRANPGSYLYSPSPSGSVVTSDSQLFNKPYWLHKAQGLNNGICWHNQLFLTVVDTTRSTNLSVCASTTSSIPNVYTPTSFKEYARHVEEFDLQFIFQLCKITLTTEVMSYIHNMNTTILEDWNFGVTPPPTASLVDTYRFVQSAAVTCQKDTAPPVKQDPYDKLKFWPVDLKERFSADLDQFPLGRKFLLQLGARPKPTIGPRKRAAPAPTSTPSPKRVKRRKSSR

HPV59 L1 pentamer = molecular target: T8, HPV59 L1 pentamer (human papillomavirus type 59); assay: ELISA
T8 chain: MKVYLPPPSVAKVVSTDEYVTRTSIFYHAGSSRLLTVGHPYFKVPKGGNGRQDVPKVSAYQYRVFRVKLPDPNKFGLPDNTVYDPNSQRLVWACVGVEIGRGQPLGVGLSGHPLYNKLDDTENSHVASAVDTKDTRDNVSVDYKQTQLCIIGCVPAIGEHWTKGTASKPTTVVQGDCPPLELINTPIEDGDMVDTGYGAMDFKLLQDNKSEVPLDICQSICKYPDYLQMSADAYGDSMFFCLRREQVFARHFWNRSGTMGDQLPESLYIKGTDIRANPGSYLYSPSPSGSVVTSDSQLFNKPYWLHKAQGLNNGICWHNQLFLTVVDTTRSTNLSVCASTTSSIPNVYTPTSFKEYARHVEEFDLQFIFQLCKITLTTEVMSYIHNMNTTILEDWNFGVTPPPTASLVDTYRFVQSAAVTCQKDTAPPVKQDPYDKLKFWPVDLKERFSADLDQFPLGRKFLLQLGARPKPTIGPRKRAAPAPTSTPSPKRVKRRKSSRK

HPV58 L1 pentamer [10] = molecular target: T9, HPV58 L1 pentamer (human papillomavirus type 58, UniProt P26535); assay: crystal structure; conditions: both partners purified
T9 construct: also called HPV58p; HPV58 pentamer

crystal structure = molecular target: the molecule itself; assay: crystal structure

B1: MAb A12A3 (antibody, V domains shown)
VH: EVQLQQSGAELVRPGALVKLSCKASGFNIKDYYMHWVKQRPEQGLEWIGWIDPENGKTIYDPRFRGKASITADTSSNTAYLQLSSLTSEDAAVYYCATSNYRYDRSFDYWGQGTTLTVSA
VL: DIQMTQSPSSLFASLGGKVTITCKASQDINKYIAWFQHKPGKGPRLLIHYTFTLQPGIPSRFSGSGSGRDYSFSISNLEPEDIATYYCLQYHNLYTFGGGTKLEIK
notes: also called A12A3 IgG
In the case of B1, the IC50 of neutralisation of the HPV33 KAT PsV mutant [1] is reported as 4300 ng/mL, the fold increase of the EC50 against the WT HPV58 VLP [2] is reported as 80 fold and the fold increase of the EC50 against the WT HPV58 VLP [3] is reported as 2 fold. For the same binder, the fold increase of the EC50 against the WT HPV58 VLP [4] was 2 fold, the Ka (HPV58 L1 pentamer [5]) was 1.91e+08 M⁻¹ and the Kd (HPV58 L1 pentamer [5]) was 5.33 nM. The koff (HPV58 L1 pentamer [5]) was 0.0004 s⁻¹, the kon (HPV58 L1 pentamer [5]) was 78400 M⁻¹ s⁻¹ and the EC50 (HPV58 L1 VLP) was 0.0104 µg/mL. The EC50 (HPV58 L1 pentamer [6]) was 8.5 ng/mL.

B2: MAb 28F10 (antibody, V domains shown)
VH: DVKLVESGGGLVKPGGSLKLSCAASGFPFSDYTMSWIRQTPEKRLEWVASISSGGTYTYYPDTVKGRFTISRDNAKNTLYLQMSSLKSEDTAMFYCTRASPYYDYDEGYMDYWGQGTSVTVSS
VL: DVVMTQTPLSLPVSLGDQASISCRSSQSLVHSNGNTYLHWYLQKSGQSPKLLIYKVSNRFSGVPDRFSGSGSGTDFTLKISRVEAEDLGVYFCSQSTHVPFTFGAGTKLELK
With B2 the IC50 of neutralisation of HPV18 TQG PsVs [7] was 9.7 ng/mL, the fold increase of the EC50 against the WT HPV59 pentamer [8] was 10 fold and the fold increase of the EC50 against the WT HPV59 pentamer [9] was 20 fold. For the same binder, the EC50 (HPV59 L1 VLP) was 5 ng/mL and the EC50 (HPV59 L1 pentamer) was 0.0464 µg/mL.

B3: A12A3 Fab (Fab, V domains shown)
VH: EVQLQQSGAELVRPGALVKLSCKASGFNIKDYYMHWVKQRPEQGLEWIGWIDPENGKTIYDPRFRGKASITADTSSNTAYLQLSSLTSEDAAVYYCATSNYRYDRSFDYWGQGTTLTVSA
VL: DIQMTQSPSSLFASLGGKVTITCKASQDINKYIAWFQHKPGKGPRLLIHYTFTLQPGIPSRFSGSGSGRDYSFSISNLEPEDIATYYCLQYHNLYTFGGGTKLEIK
notes: also called Fab fragment of A12A3; source: papain digestion of MAb A12A3, purified with DEAE-5PW exchange
With B3 the “stoichiometry N” value (HPV58 L1 pentamer [10]) was 1 Fab per pentamer.

B4: HPV58 L1 pentamer (natural protein)
chain: EATVYLPPVPVSKVVSTDEYVSRTSIYYYAGSSRLLAVGNPYFSIKSPNNNKKVLVPKVSGLQYRVFRVRLPDPNKFGFPDTSFYNPDTQRLVWACVGLEIGRGQPLGVGVSGHPYLNKFDDTETSNRYPAQPGSDNRECLSMDYKQTQLCLIGCKPPTGEHWGKGVACNNNAAATDCPPLELFNSIIEDGDMVDTGFGCMDFGTLQANKSDVPIDICNSTCKYPDYLKMASEPYGDSLFFFLRREQMFVRHFFNRAGKLGEAVPDDLYIKGSGNTAVIQSSAFFPTPSGSIVTSESQLFNKPYWLQRAQGHNNGICWGNQLFVTVVDTTRSTNMTLCTEVTKEGTYKNDNFKEYVRHVEEYDLQFVFQLCKITLTAEIMTYIHTMDSNILEDWQFGLTPPPSASLQDTYRFVTSQAITCQKTAPPKEKEDPLNKYTFWEVNLKEKFSADLDQFPLGRKFLLQSGLKAKPRLKRSAPTTRAPSTKRKKVKK
notes: also called HPV58p; HPV58 pentamer
For B4, the “stoichiometry N” value (crystal structure) was 5.
